Test results: a protein production outcome set (Wang et al. 2014)

Assay: label from the status in PepcDB records

Row | Sequence | protein production
1 | MAQRIFTLILLLCSTSVFAGLFDAPGRSQFVPADQAFAFDFQQNQHDLNLTWQIKDGYYLYRKQIRITPEHAKIADVQLPQGVWHEDEFYGKSEIYRDRLTLPVTINQASAGATLTVTYQGCADAGFCYPPETKTVPLSEVVANNAAPQPVSVPQQEQPTAQLPFSALWALLIGIGIAFTPCVLPMYPLISGIVLGGKQRLSTARALLLTFIYVQGMALTYTALGLVVAAAGLQFQAALQHPYVLIGLAIVFTLLAMSMFGLFTLQLPSSLQTRLTLMSNRQQGGSPGGVFVMGAIAGLICSPCTTAPLSAILLYIAQSGNMWLGGGTLYLYALGMGLPLMLITVFGNRLLPKSGPWMEQVKTAFGFVILALPVFLLERVIGDVWGLRLWSALGVAFFGWAFITSLQAKRGWMRIVQIILLAAALVSVRPLQDWAFGATHTAQTQTHLNFTQIKTVDELNQALVEAKGKPVMLDLYADWCVACKEFEKYTFSDPQVQKALADTVLLQANVTANDAQDVALLKHLNVLGLPTILFFDGQGQEHPQARVTGFMDAETFSAHLRDRQP | failed
2 | MTAPASSLDRFFGLRARGTTVRREILAGTTTFMTMAYILFVNPEILGSAAGAGHFAAILTSTALVAAVMTAAMGLFANLPLALASGMGLNAVVAFGLVLGKKLTYPQAMGVIVAEGVLITLLVATGLRQAVVRAVPMTLKRAIGIGIGLFLAIIGFKAAGFISAGGALLQLGPEGAAGRLTGFPVVLFALTLVFTAWLVSRGVRGALLIGIAVSTAVAVTAKAAFGGAGFAPHVANLPSSIFGLPDFSMLGQVDFSFVAVLGPLAASLAVFSIMLSDFFDTVGTVVAVGQEAKYLDEQGNFPRASTVLMVDSLAAIAGGLAGASSATTYVESAAGAASGGRTGLTSVTTAALFALCLFISPLAGIVPPQATGAVLVLVGYMMMRDVGAIAWDDPSESIPAFLTVTVMPFTYSITNGIGAGFVSYVLLKLAGGKAREVHPLMIGASVAFVVYFAIGG | failed
3 | MLYPNERKSSVHAIPYQDQLKQVQSAVDEFQKANGGLLPIQTKDMSTPLYQKYPIDFNRLAPRYIAEPPSTAFESGGDYQYVLVDVENDPTVKLIDLKMAEKIRDVKLRIQMYRQEHQYPPYKDVLSRDLFTLDEKKLGDGSSLTVTSPISGNSLPLMIDGDGEIYADYRTELASCLKKSKKTFKPGTEIQDMIWHETPFVPAFSVKYTVNDKQEPVFLENDMKKELEHHHHHH | not failed
4 | MSRPADKPQPFYFAYGSNMNPAQIEARCRKPEVVATARLPDHRLGFFGSSKIWDGGEESAQPEPGADLWGVVYRLSFHDAEILDTWQKVWLDGTGPYFHFPTQVFDAEGRNYPVLLYKRDVLGPRQKPSAPYLDHIIAGAMARALPPPYIDLLRAIPTCQASTPVPRKASFNPEFFAGLACQCGDLEHHHHHH | failed
5 | MKTEKFFTHPIGVFIAAIVATFLWGSAFPFIKLSYVELGIQPQEVGEQILFAGYRFFLSGFMLLLFFKVLGKDMSFKKGTGKQLIQIGLFQTFLQYICFYIGMSYSSGIEGAIISGTSSFFQILLAHFLYKDDALNMRKIIGVSIGFCGVVLVNMPSDGSLSFHFGIGSLLLLSAAMLYSYGNILAKEGSKTLDVGYMTAYQMMFGSIGLLCIGALQVGVMPFTFSLHALLMLIYLSFLSAAGFCIWNTIMKYNKVGKVSMYMFFIPVFGVLLSSMILGEAIHSFVLLGLACVAAGIIVVNRTPAKQKIEKEKQVA | failed
6 | MLIKRLAFAIMTLVIMTSAGCGFKLQRSYQIPEQLNQLSLSSSDEYSELTRLVRERLRLNNVKIVDAANDVPVLRLITDSLERSTLSLYPTGNVAEYELIYFVEFAVALPGKEAQPFKIEIRRDYLDDPRTALAKSREMELLVKEMRIQAADRILQSMASTEVNLEHHHHHH | not failed
7 | MISAWLLVLISITYISLLFLIAWAGDRHPGLYKRRLARTHIYGLSLAVYFTSWTFYGAVGRATQEGLAFLPIYLGPLLVFIFFAPLLRRIIYISKRNNSTSIADFIASRYGKSQVLAAMVAIFALIGSVPYIALQLKAIALGFNVLSGTGDSYQELSTAAWNDSAWYITLALAVFTVLFGTRHLESTEHHRGMIQAVAFESLIKLIAFVAVGLFVGYGLYDGFGDLFTRVREADLMGTLTTESLEAPAFLTQTLVAMLAIICLPRQFHVMVVENTDHRDFEVARWAMPIYLIIASAFVIPIAAAGLLSTHLAGSDPDIVILQLPIMAGEHWLAVLAFLGGGSAAAAMVIVCSVAIATMVSNEIIMPGLLKFFRPGMNRRTDLSFLLLTIRRVAIFVVLLTAYGFYRMAGEDYSLTAFGLLSFAAAAQFGPALVGGILWRQGNFTGAAWGLGLGFLMWCYTLLLPALVSTGWVADTLIEHGLFGWNWTRPTALFGSELDQISHGILWSLGVNTGAYILLSLITRQRIREKIQIAAFFHDAQPKAENAQHQSWQGEILTSDLQALTDRFMGEERSESIFRNYERRNAIRLYPQRPASTHLMKYIERQLASVIGASTARVVLESTLTGRDMQIEDVVSIVDEASQAMTFSRELLQSAIENISLGVSVVNHQQQLVVWNHRYLELFNYPKGFVRVGRPVEDLMRYNLTNANLSARRIDDIVENRCNSMREGKPMSYERQRPDGTVVRVDGSPIPGGGYVTTFQDITAMRRTEQALKETNIYLEQRVRERTQELQVINEQMLKAKSVAEQANQSKTRFLASASHDLLQPLNAARLFTSALSGKVNEGETRDLVDHIDSSLGAAEEIISTLLDISKLDAGALEPDIGVFPVNELLRHLATEFSAIAKDQGLELHVVPSTAWVRSDAKLLRRVVQNFLSNAIRYTASGKILMGCRRLKGYLRIEVWDTGPGMSDDQLNHIFEEFRRFQHGRDKKGLGLGLAIVDRISGMLNHPVTVHSIQGKGSVFGITVPVAPADQSRLDAQKSGSSSRRVSNLGGLHVLCIDNDAAILQGMVALLGNWQCDVTAAESLDDALTKLDGRQPDIILADYQLDDNRNGLDAMDSIREHLGNDIPGILITGYMAPEVRDDAGNRGYQVLYKPVKPAALRALVNKLLKQKRS | failed
8 | MGHERDWSLVQVALTDITARKKAEAYLEYLGKHDVLTKLHNRAFYSDELNRLERSALRPVSAIVIDLNGLKEANDKLGHDAGDALLRRVGEVLNGVVTAPNHAARIGGDEFAILLPGADKQVAAAMVDTVYELLKINNQFYSSAPLSLSLGVATTEAGETMESLVRRADMNMYEQKNAYYAALRNRSADNNDTTKGLEHHHHHH | not failed
9 | MPSIISDNPKNWSEEIKNYLCRSSPERYEKMATNNAIEPYISKAISWGYAEWKNRKTLLDDIETEMLRLATLPDLSDFNDNEIYSSKKNYLSKEILENYLIKASPENFNTVFRQPGWKSHVNFLIEKGNRELERQIINGNGVENSVDTVCAELAKLMNDFENSFFDEIYGNSTPRYLLPNLFEKAIAEYKLLATIKERTRFIEAFIEIVMFDWQFSGTLDSDLFKNAYSKEVLYYYGIGARLFVLGEFKEAQEYFKKIINIEPKPIDYLMLSKTYRALNEKVETFNTIKDGLTHFPNDFLLTLALSGTLYWMGETKLANETLEPVKKDFNTMYKSEIEGAKKLAVEISEAIKCDKIYRDQKNDIYDDKYTKKAWYQYWYHYNCFRPTQHPEAYMIDYIPRYLTSIAKDATITLKGVLDFGTLCAEPLYRFAKNNPEIQCVGIDRQDLVKELNDKAYSLNNLRFEAGDIFEYLEHFALLVPNHRMLFHCRTAVLCYPNFLLKLYKKCAELGIEYICLMESNSLSRDTLTFYNYGEMPNISIARRGSLINHDYFLLLEQSGYEIVKKDFHLAPHLLEDYAALIGSNTTLVAQLKLLTQSQ | failed
10 | MKTKLMTLQDATGFFRDGMTIMVGGFMGIGTPSRLVEALLESGVRDLTLIANDTAFVDTGIGPLIVNGRVRKVIASHIGTNPETGRRMISGEMDVVLVPQGTLIEQIRCGGAGLGGFLTPTGVGTVVEEGKQTLTLDGKTWLLERPLRADLALIRAHRCDTLGNLTYQLSARNFNPLIALAADITLVEPDELVETGELQPDHIVTPGAVIDHIIVSQESK | not failed
11 | AHADFEHLPVALMKFGSDGSLRVANRAARDLLGLGHDAQPDFSDLFEGLGRAVRDWLADVAAERMPGGAEVLRLRRSEEEVFLQIALRRIVEHGRPLVLAVLNDAT | failed
12 | MSEFTRVFNYKIKLIIAISLFFTQLISANASVEVNISVEQPEHHLANVELKFEQVNESKVNFYLPTWRTGRYETLNLANGIREFIAQDSQGNVLSWHKIDKNTWQVSDAKNKKITLTYQVYANQLAKRTRHIDDSHAFLDSSAVVMYSQASRSSEHIVQLSVPKLWKSFSGLESGNNSHQFIAHDYDQLVDSPIESGINEHYQFSVDNRQYELVIWGEGNYDSAKMVKDLQILVKQSKHVWQGYPFKRYVFMVHATSGARGATEHVNSTIIQRSRFKFSTRKDYLSFIAVAAHEFVHTWNVKQYRPKGIVPYDYQQENYSNLLWLVEGSTSYLQYQLLLRGNLMTTDEFFTALAKRITAHAHKPGKESQSVAQASFDAWISEGGDYGNNHSVNIYSEGFLASWLLDFDILAKTALSKSYRNAHNQLYQQHRLPKGYDEQDVLSILEQITGDDYQVWWQKNIQGTTKINFNRLLAKAGLKMSYAKNVKDKSSEQSKVWTGLKTKLDNHDLIVSSVEKNSPAWDAGLTTEDVIVAIDGLRLLDNELDNRLKDFKPKQTITVTYFRRDKLITSRLKLAAIPKNKLKIIPIAKASVEQKAFFKAWMGVDFPEKK | failed
13 | MSRDTVRPPCVHPGFARPLPARASLPFLGRVSPGDSSRRAGRDGRKWGMESGPAIFAGTVFALFGGGLLTWTVSRVRHRAPVAHDVNPVASATLAGLAAVSALVLGAWCFTHL | failed
14 | MNKKNVELLVAIGEVYLKAGKLPEAQEYAALAKKVNGKSALASVLEGDIAFEQKNAGLASQKYEEAIYFDPSCTEAYLRYADIYKSANAALAIEKLEQLKAQEPSNTAVDKKLAEIYYLKNDFSKAAEAYSRFAMGPTATEEDLVKYAFALFLNHDFEKSLEVANMGLKKNARHAAFNRLAMYNYTDLKRFDEAIKAADAFFTESDKADYSYLDYMYYGHLLEALKKYDEAVGQYEKAIQLDPTKTDLYKNISSAYEQKNDYKKAISAYQKYYTSLDKEHQTPDLEHHHHHH | failed
15 | MQIGPGSATRLEFRRHFAATPEQLWAALTSPALLPAWLFARGWPMTECVFEPHKGGLIRQVWTGPEGRTRGLTGRVILAEPPHRLIHSELYDEDWTGGETLVTLQLLPVEGGTELAMAVDYATPEARDAVAASAMATEMEEAYRHLDVMLAALEHHHHHH | not failed
16 | MARRPFSSQSLVLIVIAIAINMIGGQLISMLKLPIFLDSIGTLISAVLLGPFIGMLTGLLTNLLWGLLTDPIAAAFAPVAMVIGLVAGWLARAGWFRTLPKVIVSGVVITLAVTLVAVPLRTALFGGVTGSGADLFVAWMHSMGQNLVESVAITVIGANLVDKILTAIIVWVLLRQLPLRTTRHFPAMSAVR | failed
17 | MESVTFEDVAVEFIQEWALLDSARRSLCKYRMLDQCRTLASRGTPPCKPSCVSQLGQRAEPKATERGILRATGVAWESQLKPEELPSMQDLLEEASSRDMQMGPGLFLRMQLVPSIEERETPLTREDRPALQEPPWSLGCTLPLLSLLLPSCPEPPLVLLDSSSAPDRHLGSTLDTEARGIP | failed
18 | KKPEGKPDQKFDQKQELGRVIHLSNLPHSGYSDSAVLKLAEPYGKIKNYILMRMKSQAFIEMETREDAMAMVDHCLKKALWFQGRCVKVDLSEKYKKLV | not failed
19 | MALCLNPDCGQPNNDDANSSCATCGSPLLLRDRYRVVKAIGQGGFGATYLGQDLQLPGEPLCVIKQLLPQVQDPEIMLMARELFRREAKTLGRIGSHPQVPTLLDYFEAPEGFYLVQEYIRGKTLEQEVREQGVYSETATKQFLSELLPLLQYLHNQGVIHRDIKPANLLRRDIDRRLVLIDFGAVKDQVSQIQGGSGLTALTSFSVGTRGYAPPEQLAMRPVYSSDLYSLGVTCLFLMTGKGPQDLDYNPVTGELLWRNSVQVSDALATVLGKMLAASVRYRYQRAEQVMTALDLQPYHDSLIQGLSALPPGAPPIKPSSGRTGSGYPSPQERQAEAIRARRRDRSGNRPEQLADAQQIAAWTGGTSNTSGNNSAGRLSLNARDILATYQRGRRDFSQQPLNRIDLSESQLPSVNFQGAQLKESLFVAAQLERADFGQANLHRANLRRANLHQAYFGNADLSFANLQKADLSDAILSNANLRGTNLCGANLRGAKLTPVQLKMAKTNWWTILPDGRRGRLF | failed
